Experiments:
[1] = target: T1, cell-surface CMVP495-503/HLA-A*02:01 complex (human cytomegalovirus (CMV); human); assay: flow cytometry, MDA-MB-231 pulsed with 4 µM CMVP495-503 peptide, Alexa647 anti-mouse Fc
T1 construct: whole, on cells; also called CMV pp65 peptide complex

[2] = target: T2, cell-surface HPVE11-19/HLA-A*02:01 complex (HPV16; human); assay: flow cytometry, MDA-MB-231 pulsed with HPVE11-19 peptide, Alexa647 anti-mouse Fc
T2 construct: whole, on cells

[3] = target: T1, cell-surface CMVP495-503/HLA-A*02:01 …; assay: flow cytometry, cells pulsed with 50 µM CMVP495-503 peptide, Alexa647 anti-mouse Fc
[4] = target: T1, cell-surface CMVP495-503/HLA-A*02:01 …; assay: flow cytometry, 500 nM antibody on MDA-MB-231 cells pulsed with 50 µM peptide

B1: TCR-like antibody H9 #1 (IgG form, mouse IgG2a / mouse kappa) (antibody, V domains shown)
VH: EVQLVQSGAEVKKPGSSVKVSCKASGGTFSSYAISWVRQAPGQGLEWMGGIIPIFGTANYAQKFQGRVTITADESTSTAYMELSSLRSEDTAVYYCARGDLYYYDSSGYPLWYMDYWGQGTLVTVSS
VL: ETTLTQSPGTLSLSPGERATLSCRASQSVSSSYLAWYQQKPGQAPRLVIYGASSRATGIPDRFSGSGSGTDFTLTISRLEPEDFAVYYCQDYSTYPAFTFGQGTKLEIR
notes: also called #1 clone in IgG form
Question: Does B1 bind [1]?
Answer: binds

Question: Does B1 bind [2]?
Answer: no binding (tested: 50 nM)

B2: TCR-like antibody H9 #38 (IgG form, mouse IgG2a / mouse kappa) (antibody, V domains shown)
VH: EVQLVQSGAEVKKPGSSVKVSCKASGGTFSSYAISWVRQAPGQGLEWMGGIIPIFGTANYAQKFQGRVTITADESTSTAYMELSSLRSEDTAVYYCARGDLYYYDSSGYPWYYMDYWGQGTLVTVSS
VL: ETTLTQSPGTLSLSPGERATLSCRASQSVSSSYLAWYQQKPGQAPRLVIYGASSRATGIPDRFSGSGSGTDFTLTISRLEPEDFAVYYCQHSYAFPGFTFGQGTKLEIR
notes: also called #38 clone in IgG form
Question: Does B2 bind [3]?
Answer: binds

B3: TCR-like antibody H9 (chimeric full-length IgG, mouse IgG2a / mouse kappa) (antibody, V domains shown)
VH: EVQLVQSGAEVKKPGSSVKVSCKASGGTFSSYAISWVRQAPGQGLEWMGGIIPIFGTANYAQKFQGRVTITADESTSTAYMELSSLRSEDTAVYYCARGDLYYYDSSGYPRYYFDYWGQGTLVTVSS
VL: ETTLTQSPGTLSLSPGERATLSCRASQSVSSSYLAWYQQKPGQAPRLVIYGASSRATGIPDRFSGSGSGTDFTLTISRLEPEDFAVYYCQHYSTSPGFTFGQGTKLEIR
notes: also called H9 clone; H9 antibody
Question: Does B3 bind [2]?
Answer: no binding (tested: 50 nM)

Question: Does B3 bind [4]?
Answer: binds

B4: TCR-like antibody H9 #1-17 (IgG form, mouse IgG2a / mouse kappa) (antibody, V domains shown)
VH: EVQLVQSGAEVKKPGSSVKVSCKASGGTFSSYAISWVRQAPGQGLEWMGSIIPIFGVAEYAHKFQGRVTITADESTSTAYMELSSLRSEDTAVYYCARGDLYYYDSSGYPLWYMDYWGQGTLVTVSS
VL: ETTLTQSPGTLSLSPGERATLSCRASQSVSSSYLAWYQQKPGQAPRLVIYGASTRPTGIPDRFSGSGSGTDFTLTISRLEPEDFAVYYCQDYSTYPAFTFGQGTKLEIR
Question: Does B4 bind [1]?
Answer: binds

Question: Does B4 bind [2]?
Answer: no binding (tested: 50 nM)

B5: TCR-like antibody H9 #1-30 (IgG form, mouse IgG2a / mouse kappa) (antibody, V domains shown)
VH: EVQLVQSGAEVKKPGSSVKVSCKASGGTFSSYAISWVRQAPGQGLEWMGSIIPIFGAAEYAQKFQGRVTITADESTSTAYMELSSLRSEDTAVYYCARGDLYYYDSSGYPLWYMDYWGQGTLVTVSS
VL: ETTLTQSPGTLSLSPGERATLSCRASQSVSSSYLAWYQQKPGQAPRLVIYGASSRPRGIPDRFSGSGSGTDFTLTISRLEPEDFAVYYCQDYSTYPAFTFGQGTKLEIR
Question: Does B5 bind [2]?
Answer: no binding (tested: 50 nM)

From patent US20230045418A1 (AJOU UNIVERSITY INDUSTRY ACADEMIC COOPERATION FOUNDATION, published 2023)
